Key:
Settings in all cases: both partners purified
[1] = molecular target: T1, RBBP4, full-length, wild type (UniProt Q09028 1-425); test: ITC; AEBP2_(379–390) peptide titrated into RBBP4; one-site binding model, Origin 7
T1 construct: RBBP4 (also known as RbAp48), full-length; also called RbAp48; apo RBBP4

[2] = molecular target: T2, RBBP4 Glu231Ala (UniProt Q09028 1-425, Glu231Ala); test: as above
T2 construct: RBBP4 with the mutation Glu231Ala; parent is the wild-type RBBP4 of m1; also called RBBP4 E231A

[3] = molecular target: T3, RBBP4 Glu126Ala/Asn128Ala/Glu179Ala (UniProt Q09028 1-425, Glu126Ala | Asn128Ala | Glu179Ala); test: as above
T3 construct: RBBP4 with the mutations Glu126Ala/Asn128Ala/Glu179Ala; parent is the wild-type RBBP4 of m1; also called RBBP4 E126A/N128A/E179A

[4] = molecular target: T1, RBBP4, full-length, wild type; test: SEC; gel filtration on a Superdex 200 10/300 GL column; RBBP4 mixed with excess AEBP2 ZF-RRK, against apo RBBP4 and apo ZF-RRK; SDS-PAGE of the peaks

T1 sequence (Q09028 whole entry): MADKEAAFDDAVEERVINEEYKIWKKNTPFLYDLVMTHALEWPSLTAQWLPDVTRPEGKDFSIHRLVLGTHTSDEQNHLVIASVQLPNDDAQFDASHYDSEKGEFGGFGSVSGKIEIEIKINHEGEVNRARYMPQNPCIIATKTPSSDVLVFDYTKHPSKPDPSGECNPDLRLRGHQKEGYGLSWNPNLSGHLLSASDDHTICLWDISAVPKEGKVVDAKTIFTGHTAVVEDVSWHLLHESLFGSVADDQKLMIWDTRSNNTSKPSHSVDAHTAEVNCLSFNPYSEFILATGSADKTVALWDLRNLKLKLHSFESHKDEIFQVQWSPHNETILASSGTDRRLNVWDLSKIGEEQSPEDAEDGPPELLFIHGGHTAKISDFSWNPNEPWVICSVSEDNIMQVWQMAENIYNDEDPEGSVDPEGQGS
T3 sequence (Q09028 whole entry E126A/N128A/E179A): as the sequence (Q09028 whole entry) above, with E126A, N128A, E179A counted along it
T2 sequence (Q09028 whole entry E231A): as the sequence (Q09028 whole entry) above, with E231A counted along it

B1: AEBP2_(379–390) peptide (RRK-rich motif, residues Lys379–Ser390) (peptide, UniProt Q6ZN18-1 379-390, looked up)
peptide: KRRKLKNKRRRS
notes: AEBP2, human, RRK-rich motif, residues Lys379–Ser390 of Uniprot entry Q6ZN18-1; source: synthetic peptide
- Kd [1]: 7.6 ± 0.6 µM
- dH [1]: -15.9 ± 0.395 kcal/mol
- fold reduction of binding affinity against wild-type RBBP4 [2]: 5 fold
- fold reduction of binding affinity against wild-type RBBP4 [3]: 7 fold

B2: AEBP2 ZF-RRK (ZF1–3 and the RRK-rich motif, residues Asn258–Asp396) (domain or fragment, human, UniProt Q6ZN18-1 258-396, looked up)
chain: NIAYNCCWDQCQACFNSSPDLADHIRSIHVDGQRGGVFVCLWKGCKVYNTPSTSQSWLQRHMLTHSGDKPFKCVVGGCNASFASQGGLARHVPTHFSQQNSSKVSSQPKAKEESPSKAGMNKRRKLKNKRRRSLPRPHD
notes: AEBP2, human, residues Asn258–Asp396 (numbering as for Uniprot entry Q6ZN18-1); also called apo AEBP2 ZF-RRK; source: recombinant protein
- binding result [4]: binds

B3: AEBP2_(379–390) peptide with mutations Arg380Ala/Lys382Ala (peptide, UniProt Q6ZN18-1 379-390, looked up)
peptide: KARALKNKRRRS
notes: AEBP2, human, residues Lys379–Ser390 of Uniprot entry Q6ZN18-1 with Arg380Ala/Lys382Ala
- fold reduction of binding affinity against the wild-type peptide [1]: ~20 fold

Source: publication PMC6053351, “Structural and biochemical insights into human zinc finger protein AEBP2 reveals interactions with RBBP4” (Protein & Cell, 2017)
